# Experimental data: the Human Domainome abundance scans (Beltran et al. 2025)
# ± gives the uncertainty stated by the source.
# B1: Zinc finger MYM-type protein 6, residues 427 to 504; numbered along this chain, O95789 (parent)
# chain: KLKCQHCNHLFATKPELLFYKGKMFLFCGKNCSDEYKKKNKVVAMCDYCKLQKIIKETVRFSGVDKPFCSEVCKFLSA
# Variants of: B1
# Assay: abundance fitness (aPCA) (normalised: wild type 0, dead -1); higher = more abundant; growth selection in yeast, the domain comes from the species named
# Settings: Homo sapiens
row,Variant,abundance fitness
1,Q52M,0.234 ± 0.23
2,Q52P,0.108 ± 0.22
3,Q52R,0.061 ± 0.071
4,K21W,-0.133 ± 0.038
5,K21S,0.012 ± 0.044
6,K21F,-0.03 ± 0.057
7,K21D,-0.004 ± 0.041
8,K21Q,-0.03 ± 0.036
9,N8M,-0.009 ± 0.047
10,N8W,-0.154 ± 0.042
11,N8P,-0.129 ± 0.035
12,N8I,-0.168 ± 0.046
13,N8F,-0.172 ± 0.07
14,N8S,0.042 ± 0.036
15,N8H,-0.117 ± 0.064
16,L26A,0.05 ± 0.028
17,L26G,0.125 ± 0.029
18,L26F,-0.148 ± 0.11
19,L26P,-0.03 ± 0.04
20,L26Q,0.166 ± 0.057
21,L26W,-0.053 ± 0.032

row,Variant,abundance fitness
1,L26K,0.09 ± 0.04
2,L26V,0.037 ± 0.031
3,D47L,0.177 ± 0.066
4,D47V,-0.58 ± 0.1
5,S70D,-0.498 ± 0.19
6,S70L,-0.162 ± 0.2
7,S70P,-0.563 ± 0.48
8,H6P,-0.993 ± 0.081
9,H6T,-0.079 ± 0.11
10,H6K,-0.46 ± 0.43
11,H6S,-0.085 ± 0.037
12,H6G,-0.04 ± 0.027
13,H6Q,-0.098 ± 0.037
14,H6A,-0.043 ± 0.031
15,E71M,0.094 ± 0.14
16,E71Y,-0.28 ± 0.19
17,E71V,-0.386 ± 0.11
18,E71P,-0.054 ± 0.16
19,E71W,-0.634 ± 0.18
20,E71K,0.16 ± 0.17
21,F75L,0.365 ± 0.072

row,Variant,abundance fitness
1,F75Y,-0.699 ± 0.42
2,F75K,0.533 ± 0.1
3,F75P,0.039 ± 0.12
4,K14D,-0.081 ± 0.068
5,K14N,-0.1 ± 0.058
6,K14F,-0.298 ± 0.046
7,L10P,0.034 ± 0.046
8,L10V,-0.002 ± 0.029
9,C4P,-0.681 ± 0.14
10,C4G,-0.772 ± 0.035
11,C4W,-1.11 ± 0.08
12,C4M,-1.05 ± 0.4
13,C4E,-0.81 ± 0.067
14,K23F,-0.15 ± 0.1
15,K23A,-0.045 ± 0.032
16,K23C,-0.172 ± 0.065
17,C69M,-0.443 ± 0.16
18,C69R,-0.602 ± 0.097
19,C28A,-1 ± 0.061
20,C28D,-0.352 ± 0.061
21,C28M,-0.752 ± 0.22

row,Variant,abundance fitness
1,L76Q,0.603 ± 0.13
2,L76C,0.183 ± 0.18
3,L76R,0.209 ± 0.073
4,L2H,-0.131 ± 0.11
5,L2W,-0.119 ± 0.032
6,L2P,-0.068 ± 0.052
7,L2S,0.031 ± 0.038
8,L2E,0.109 ± 0.035
9,T13V,-0.098 ± 0.042
10,T13Y,-0.029 ± 0.073
11,T13C,-0.201 ± 0.056
12,T13D,-0.146 ± 0.046
13,T13Q,-0.093 ± 0.048
14,T13W,-0.162 ± 0.039
15,F68A,-0.036 ± 0.12
16,F68M,0.263 ± 0.14
17,F68W,-0.651 ± 0.12
18,F68E,-0.278 ± 0.1
19,F68S,-0.842 ± 0.17
20,F68K,-0.476 ± 0.21
21,C7L,-0.951 ± 0.075
